Laboratory results as given in patent US20260226440.

How the values were obtained:
Assay in all cases: cell_activity
[1] = test system: Type V nuclease-mutMMLV RT fusion; settings: HEK293T
[2] = test system: T1, Type V CRISPR nuclease (8218); settings: indels in HEK293T; PAM 5'-TTTC-3'; reference
T1 sequence: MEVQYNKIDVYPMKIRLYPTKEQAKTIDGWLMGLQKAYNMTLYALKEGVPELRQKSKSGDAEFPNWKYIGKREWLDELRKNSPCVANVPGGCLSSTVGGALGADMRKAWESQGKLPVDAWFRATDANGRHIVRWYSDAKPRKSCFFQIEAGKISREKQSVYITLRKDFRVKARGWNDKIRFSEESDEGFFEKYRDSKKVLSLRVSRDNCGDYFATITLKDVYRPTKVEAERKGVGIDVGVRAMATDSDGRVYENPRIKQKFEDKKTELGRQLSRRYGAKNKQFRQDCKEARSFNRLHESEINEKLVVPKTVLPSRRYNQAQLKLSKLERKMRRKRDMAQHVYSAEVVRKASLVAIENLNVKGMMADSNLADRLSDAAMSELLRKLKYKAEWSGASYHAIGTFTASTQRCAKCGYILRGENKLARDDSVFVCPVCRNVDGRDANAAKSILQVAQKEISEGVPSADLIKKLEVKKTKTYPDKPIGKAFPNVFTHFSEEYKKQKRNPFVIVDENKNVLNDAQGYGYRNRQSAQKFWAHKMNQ

[3] = test system: nuclease-RT fusion A138R A138R (numbering of SEQ ID NO: 1); settings: HEK293T; PAM TTTC; average ratio, EMX1 and VEGFA tested; RT editing ratio 1.266
[4] = target: nuclease-RT fusion D125G D125G (numbering of SEQ ID NO: 1) (UniProt P03355); settings: HEK293T; PAM TTTC; average ratio, EMX1 and VEGFA tested; RT editing ratio 1.436
[5] = target: nuclease-RT fusion D137G D137G (numbering of SEQ ID NO: 1) (UniProt P03355); settings: HEK293T; PAM TTTC; average ratio, EMX1 and VEGFA tested; RT editing ratio 1.665
[6] = test system: nuclease-RT fusion D137R D137R (numbering of SEQ ID NO: 1); settings: HEK293T; PAM TTTC; average ratio, EMX1 and VEGFA tested; RT editing ratio 1.392
[7] = target: nuclease-RT fusion D237G D237G (numbering of SEQ ID NO: 1) (UniProt P03355); settings: HEK293T; PAM TTTC; loss of activity; average ratio, EMX1 and VEGFA tested; RT editing ratio 0.038
[8] = test system: nuclease-RT fusion E328R E328R (numbering of SEQ ID NO: 1); settings: HEK293T; PAM TTTC; loss of activity; average ratio, EMX1 and VEGFA tested; RT editing ratio 0.173
[9] = target: nuclease-RT fusion N127R N127R (numbering of SEQ ID NO: 1) (UniProt P03355); settings: HEK293T; PAM TTTC; average ratio, EMX1 and VEGFA tested; RT editing ratio 1.507
[10] = test system: nuclease-RT fusion R250G R250G (numbering of SEQ ID NO: 1); settings: HEK293T; PAM TTTC; loss of activity; average ratio, EMX1 and VEGFA tested; RT editing ratio 0.022
[11] = target: nuclease-RT fusion S136G S136G (numbering of SEQ ID NO: 1) (UniProt P03355); settings: HEK293T; PAM TTTC; average ratio, EMX1 and VEGFA tested; RT editing ratio 1.907
[12] = target: nuclease-RT fusion S205G S205G (numbering of SEQ ID NO: 1) (UniProt P03355); settings: HEK293T; PAM TTTC; average ratio, EMX1 and VEGFA tested; RT editing ratio 1.654

CACCGCCGUCAUCAACAUUGCCUUUCUGUUGCCCAGUAAACUUAUCAUACGGAGCCAGGCUAUAUAAUUAGCUACUUCUCGUGAGGUGCAGCCACGAGGUGCGAAAGUACGCCGCAAUGUGCGGAAUUCGCACGAAAGUUGGCGGAUUUCUUCGGAAAUCGAGCCAAUAACCAUCUCCAUAAAUAUGUGUGGUGAUGGACUGCAAGUGUUGCCCUCAUAACUUAUCUUUUUUGCG / TGTTGCCCTCATAACTTATC / GATAAGTTATGAGGGCAACA
activity ([1]; PAM TTTC, precise editing 0.249%): 14.6 % indel

CACCGUGUCAGGCCUGCUAGUCAGCCACAGUUUGGGGAAAGCUGUGCAGCCUGUAACCCCCCCAGGAGAAGCUGGGAAAAACCGUCAUCAACAUUGCCUUUCUGUUGCCCAGUAAACUUAUCAUACGGAGCCAGGCUAUAUAAUUAGCUACUUCUCCGUGAGGUGCAGCCACGAGGUGCGAAAGUACGCCGCAAUGUGCGGAAUUCGCACGAAAGUUGGCGGAUUUCUUCGGAAAUCGAGCCAAUAAGCAUAUCCAUAUUAUCUGCGGAUGGAUGUGCACUGCAAGUGUUGCCCUCAUAACUUAUCUUUUUUGCG / TGTTGCCCTCATAACTTATC / GATAAGTTATGAGGGCAACA [sgRNA_C16_xrRNA_EMX1_TTTC editing template RNA ; EMX1 target]
activity ([1]; PAM TTTC, precise editing 1.678%): 10.7 % indel

CACCGUGUCAGGCCUGCUAGUCAGCCACAGUUUGGGGAAAGCUGUGCAGCCUGUAACCCCCCCAGGAGAAGCUGGGAAAAAUGAGGAUGUAGUCACGGAUUCAUUAUCAGGUUCUGGCUGCAGGGUGCCUGAUCUGUGCCAGGGUUAAGCAUGCUGGUGAGGUGCAGCCACGAGGUGCGAAAGUACGCCGCAAUGUGCGGAAUUCGCACGAAAGUUGGCGGAUUUCUUCGGAAAUCGAGCCAAUAACCAUCUCCAUAAAUAUGUGUGGUGAUGGACUGCAAGAUUAUCAGCAAGUGGCUGCAUUUUUUGCG / ATTATCAGCAAGTGGCTGCA / TGCAGCCACTTGCTGATAAT
activity ([1]; PAM ATTC (inferred from RTT), precise editing 1.993%): 7.64 % indel

GUGAGGUGCAGCCACGAGGUGCGAAUAGGAAGUACGCAGCAAUGUGCUGAAUCGUUCGCACGAAAAUUGGCAUUUUUGAAAACCAAAGCCAAUAAUCAUAUCCAUAAAUAUGUGUGGUUAUGAACUGCAAGUGUUGCCCUCAUAACUUAUC / TGTTGCCCTCATAACTTATC / GATAAGTTATGAGGGCAACA [parent sgRNA EMX1 ; EMX1 target]
activity (relative to parent) [2]: 1

UGUCAGGCCUGCUAGUCAGCCACAGUUUGGGGAAAGCUGUGCAGCCUGUAACCCCCCCAGGAGAAGCUGGGAAAAACCGUCAUCAACAUUGCCUUUCUGUUGCCCAGUAAACUUAUCAUACGGAGCCAGGCUAUAUAAUUAGCUACUUCUCCGUGAGGUGCAGCCACGAGGUGCGAAAGUACGCAGCAAUGUGCUGAAUUCGCACGAAAGUUGGCGGAUUUCUUCGGAAAUCGAGCCAAUAAUCAUAUCCAUAUUAUCUGCGGAUGGAUGUGAACUGCAAGUGUUGCCCUCAUAACUUAUC / TGTTGCCCTCATAACTTATC / GATAAGTTATGAGGGCAACA [Table 7 editing template RNA 1 (EMX1) ; EMX1 target]
indel ratio to WT (indel ratio to WT) [3]: 2.77 | indel ratio to WT (indel ratio to WT) [4]: 2.83 | indel ratio to WT (indel ratio to WT) [5]: 2.8 | indel ratio to WT (indel ratio to WT) [6]: 2.13 | indel ratio to WT (indel ratio to WT) [7]: 0.00343 | indel ratio to WT (indel ratio to WT) [8]: 0.0299 | indel ratio to WT (indel ratio to WT) [9]: 2.7 | indel ratio to WT (indel ratio to WT) [10]: 0.00013 | indel ratio to WT (indel ratio to WT) [11]: 3.18 | indel ratio to WT (indel ratio to WT) [12]: 2.53
